Results: the supplement of paper PMC10567573

B1: ZNF232 (parent)
chain: GKAYGWCSELIRHRRVHARKEPSH

Variants of: B1
Test: protein stability index of a GFP-peptide fusion (GPS, HEK-293T) (PSI 1-6); higher = more stable
Details: c terminus: a fixed tail appended
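Further: lentivirally expressed fusions sorted by FACS into six bins by GFP to DsRed ratio, PSI derived from sequencing read proportions per bin multiplied by bin number.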

| Variant | protein stability index |
| --- | --- |
| GKAYCWCSELIRHRRVHARKEPSH [G5C] | 1.59 |
| GKAYNWCSELIRHRRVHARKEPSH [G5N] | 3.56 |
| GKAYQWCSELIRHRRVHARKEPSH [G5Q] | 3.09 |
| GKAYPWCSELIRHRRVHARKEPSH [G5P] | 3.25 |
| GKAYKWCSELIRHRRVHARKEPSH [G5K] | 2.95 |
| GKAYYWCSELIRHRRVHARKEPSH [G5Y] | 2.13 |
| GKAYWWCSELIRHRRVHARKEPSH [G5W] | 2.14 |
| GKAYVWCSELIRHRRVHARKEPSH [G5V] | 2.22 |
| GKAYSWCSELIRHRRVHARKEPSH [G5S] | 2.99 |
| GKAYRWCSELIRHRRVHARKEPSH [G5R] | 2.9 |
| GKAYEWCSELIRHRRVHARKEPSH [G5E] | 2.89 |
| GKAYAWCSELIRHRRVHARKEPSH [G5A] | 3.55 |
| GKAYMWCSELIRHRRVHARKEPSH [G5M] | 2.94 |
| GKAYDWCSELIRHRRVHARKEPSH [G5D] | 2.92 |
| GKAYHWCSELIRHRRVHARKEPSH [G5H] | 3.04 |
| GKAYTWCSELIRHRRVHARKEPSH [G5T] | 2.79 |
| GKAYLWCSELIRHRRVHARKEPSH [G5L] | 1.72 |
| GKAYIWCSELIRHRRVHARKEPSH [G5I] | 2.29 |
| GKAYFWCSELIRHRRVHARKEPSH [G5F] | 2.5 |
| GKAYGWQSELIRHRRVHARKEPSH [C7Q] | 3.18 |
| GKAYGWPSELIRHRRVHARKEPSH [C7P] | 3.61 |
| GKAYGWDSELIRHRRVHARKEPSH [C7D] | 3.42 |
| GKAYGWWSELIRHRRVHARKEPSH [C7W] | 3.05 |
| GKAYGWRSELIRHRRVHARKEPSH [C7R] | 3.59 |

| Variant | protein stability index |
| --- | --- |
| GKAYGWGSELIRHRRVHARKEPSH [C7G] | 3.89 |
| GKAYGWFSELIRHRRVHARKEPSH [C7F] | 2.42 |
| GKAYGWTSELIRHRRVHARKEPSH [C7T] | 3.26 |
| GKAYGWHSELIRHRRVHARKEPSH [C7H] | 3.37 |
| GKAYGWSSELIRHRRVHARKEPSH [C7S] | 3.82 |
| GKAYGWKSELIRHRRVHARKEPSH [C7K] | 3.54 |
| GKAYGWLSELIRHRRVHARKEPSH [C7L] | 2.34 |
| GKAYGWESELIRHRRVHARKEPSH [C7E] | 3.67 |
| GKAYGWISELIRHRRVHARKEPSH [C7I] | 2.17 |
| GKAYGWVSELIRHRRVHARKEPSH [C7V] | 2.06 |
| GKAYGWASELIRHRRVHARKEPSH [C7A] | 3.3 |
| GKAYGWMSELIRHRRVHARKEPSH [C7M] | 2.62 |
| GKAYGWNSELIRHRRVHARKEPSH [C7N] | 4.19 |
| GKAYGWYSELIRHRRVHARKEPSH [C7Y] | 2.57 |
| GKAYGWCSELINHRRVHARKEPSH [R12N] | 3.36 |
| GKAYGWCSELIFHRRVHARKEPSH [R12F] | 2.41 |
| GKAYGWCSELIKHRRVHARKEPSH [R12K] | 3.17 |
| GKAYGWCSELICHRRVHARKEPSH [R12C] | 2.57 |
| GKAYGWCSELIHHRRVHARKEPSH [R12H] | 3.24 |
| GKAYGWCSELILHRRVHARKEPSH [R12L] | 2.65 |
| GKAYGWCSELIMHRRVHARKEPSH [R12M] | 2.25 |
| GKAYGWCSELIQHRRVHARKEPSH [R12Q] | 3.02 |
| GKAYGWCSELIDHRRVHARKEPSH [R12D] | 3.03 |
| GKAYGWCSELIIHRRVHARKEPSH [R12I] | 2.22 |

| Variant | protein stability index |
| --- | --- |
| GKAYGWCSELIPHRRVHARKEPSH [R12P] | 3.21 |
| GKAYGWCSELIEHRRVHARKEPSH [R12E] | 3.54 |
| GKAYGWCSELIGHRRVHARKEPSH [R12G] | 2.92 |
| GKAYGWCSELIAHRRVHARKEPSH [R12A] | 2.82 |
| GKTYGWCSELIRHRRVHARKEPSH [A3T] | 3.02 |
| GKNYGWCSELIRHRRVHARKEPSH [A3N] | 3.12 |
| GKGYGWCSELIRHRRVHARKEPSH [A3G] | 3 |
| GKRYGWCSELIRHRRVHARKEPSH [A3R] | 2.92 |
| GKMYGWCSELIRHRRVHARKEPSH [A3M] | 2.77 |
| GKYYGWCSELIRHRRVHARKEPSH [A3Y] | 2.53 |
| GKVYGWCSELIRHRRVHARKEPSH [A3V] | 2.97 |
| GKPYGWCSELIRHRRVHARKEPSH [A3P] | 2.81 |
| GKKYGWCSELIRHRRVHARKEPSH [A3K] | 3.1 |
| GKQYGWCSELIRHRRVHARKEPSH [A3Q] | 2.95 |
| GKIYGWCSELIRHRRVHARKEPSH [A3I] | 2.35 |
| GKCYGWCSELIRHRRVHARKEPSH [A3C] | 2.89 |
| GKDYGWCSELIRHRRVHARKEPSH [A3D] | 3.39 |
| GKFYGWCSELIRHRRVHARKEPSH [A3F] | 2.73 |
| GKLYGWCSELIRHRRVHARKEPSH [A3L] | 2.29 |
| GKWYGWCSELIRHRRVHARKEPSH [A3W] | 2.48 |
| GKEYGWCSELIRHRRVHARKEPSH [A3E] | 3.04 |
| GKSYGWCSELIRHRRVHARKEPSH [A3S] | 3.46 |
| GKHYGWCSELIRHRRVHARKEPSH [A3H] | 2.69 |
| GYAYGWCSELIRHRRVHARKEPSH [K2Y] | 3.5 |

| Variant | protein stability index |
| --- | --- |
| GVAYGWCSELIRHRRVHARKEPSH [K2V] | 2.79 |
| GWAYGWCSELIRHRRVHARKEPSH [K2W] | 1.85 |
| GKAYGWCSEDIRHRRVHARKEPSH [L10D] | 3.5 |
| GKAYGWCSEVIRHRRVHARKEPSH [L10V] | 3.54 |
| GKAYGWCSEMIRHRRVHARKEPSH [L10M] | 3.43 |
| GKAYGWCSEAIRHRRVHARKEPSH [L10A] | 3.08 |
| GKAYGWCSEEIRHRRVHARKEPSH [L10E] | 2.84 |
| GKAYGWCSEPIRHRRVHARKEPSH [L10P] | 3.8 |
| GKAYGWCSEQIRHRRVHARKEPSH [L10Q] | 2.78 |
| GKAYGWCSESIRHRRVHARKEPSH [L10S] | 3.4 |
| GKAYGWCSEIIRHRRVHARKEPSH [L10I] | 2.84 |
| GKAYGWCSETIRHRRVHARKEPSH [L10T] | 3.16 |
| GKAYGWCSEWIRHRRVHARKEPSH [L10W] | 2.77 |
| GKAYGWCSEKIRHRRVHARKEPSH [L10K] | 3.08 |
| GKAYGWCSEGIRHRRVHARKEPSH [L10G] | 3.55 |
| GKAYGWCSEYIRHRRVHARKEPSH [L10Y] | 2.22 |
| GKAYGWCSEFIRHRRVHARKEPSH [L10F] | 2.6 |
| GKAYGWCSENIRHRRVHARKEPSH [L10N] | 3.54 |
| GKAYGWCSERIRHRRVHARKEPSH [L10R] | 3.35 |
| GKAYGWCSECIRHRRVHARKEPSH [L10C] | 2.15 |
| GKAYGWCSEHIRHRRVHARKEPSH [L10H] | 3.64 |
| GKAYGPCSELIRHRRVHARKEPSH [W6P] | 4.61 |
